Data on 1 molecule can be found in PMC7113306.

The assay addresses T1, ALK2-Fc, Q04771.
T1 chain: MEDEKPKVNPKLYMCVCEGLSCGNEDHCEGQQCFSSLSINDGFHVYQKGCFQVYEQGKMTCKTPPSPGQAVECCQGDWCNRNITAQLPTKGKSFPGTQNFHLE
Put plainly: SPR. The note with it: ligand; chains chain; remark: other sources report otherwise.

B1: BMP9 GF-domain (bone morphogenetic protein 9 growth factor domain), Q9UK05 320-429 (protein)
chain: SAGAGSHCQKTSLRVNFEDIGWDSWIIAPKEYEAYECKGGCFFPLADDVTPTKHAIVQTLVHLKFPTKVGKACCVPTKLSPISVLYKDDMGVPTLKYHYEGMSVAECGCR
The term Kd denotes a measure of binding affinity in units of concentration. In the case of B1, the equilibrium dissociation constant (Kd) amounted to 83 nM.
